Source: publication PMC8156467, “Disruption of YY1-EZH2 Interaction Using Synthetic Peptides Inhibits Breast Cancer Development” (Cancers, 2021)
One block for each binder: values may come before it.

Target: T1, His×6-YY1 (UniProt P25490 1-414)
T1 construct: Yin Yang 1 (YY1); The construct and its host are not described in the methods; also called purified His×6-YY1
Test: pull-down; GST-EZH2 fragments from E. coli lysates held on Glutathione-Sepharose beads, washed, 1.0 µg of purified His×6-YY1 added for 4 h at 4 °C; 20 mM Tris-HCl pH 7.5, 150 mM NaCl, 0.1% NP-40
Settings: both partners purified

T1 sequence (P25490 whole entry): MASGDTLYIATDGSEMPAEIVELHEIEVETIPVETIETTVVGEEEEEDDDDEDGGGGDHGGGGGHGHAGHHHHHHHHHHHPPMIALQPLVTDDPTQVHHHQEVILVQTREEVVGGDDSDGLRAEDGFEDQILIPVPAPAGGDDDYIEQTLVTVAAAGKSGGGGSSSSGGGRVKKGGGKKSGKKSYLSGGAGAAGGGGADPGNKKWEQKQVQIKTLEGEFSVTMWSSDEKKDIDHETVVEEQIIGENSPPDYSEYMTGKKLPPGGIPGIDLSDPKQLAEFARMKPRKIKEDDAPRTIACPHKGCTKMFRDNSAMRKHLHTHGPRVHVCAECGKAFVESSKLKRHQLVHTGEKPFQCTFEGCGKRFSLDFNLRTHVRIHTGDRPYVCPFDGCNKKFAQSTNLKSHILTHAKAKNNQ

binding result: binds
B1: GST-EZH2 (465–519) (domain or fragment)
chain: not shown
notes: Vector pGEX-4T-1; source: E. coli; held on Glutathione-Sepharose beads from bacterial lysate

binding result: binds
B2: GST-EZH2 (465–545) (domain or fragment)
chain: not shown
notes: Vector pGEX-4T-1; source: E. coli; held on Glutathione-Sepharose beads from bacterial lysate (pull-down); purified (SPR)

binding result: binds
B3: GST-EZH2 (385–618) (domain or fragment)
chain: not shown
notes: as for B2
